B1: ZNF449 (parent)
chain: HKKKSPGEKPHRCPQCGKCFARKS

Variants of: B1
Assay: protein stability index of a GFP-peptide fusion (GPS, HEK-293T) (PSI 1-6); higher = more stable
Conditions: c terminus: a fixed tail appended
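Note: lentivirally expressed fusions sorted by FACS into six bins by GFP to DsRed ratio, PSI derived from sequencing read proportions per bin multiplied by bin number.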

First: HKKKSPGEKPHRRPQCGKCFARKS [C13R]
Second: HKKKSPGEKPHRSPQCGKCFARKS [C13S]
The protein stability index of the first is lower: 3.91 for the first, 4.4 for the second.

First: HKKKSPGEKPHRTPQCGKCFARKS [C13T]
Second: HKKKSPGEKPHRVPQCGKCFARKS [C13V]
The protein stability index of the first is lower: 4.67 for the first, 4.69 for the second.

Compared with HKKKSPGEKPHRWPQCGKCFARKS [C13W], HKKKSPGEKPHRCAQCGKCFARKS [P14A] is lower in protein stability index: 3.15 for the first, 3.01 for the second.

Compared with HKKKSPGEKPHRCEQCGKCFARKS [P14E], HKKKSPGEKPHRCFQCGKCFARKS [P14F] is lower in protein stability index: 3.79 for the first, 2.72 for the second.

First: HKKKSPGEKPHRCHQCGKCFARKS [P14H]
Second: HKKKSPGEKPHRCIQCGKCFARKS [P14I]
The protein stability index of the first is lower: 3.26 for the first, 3.62 for the second.

First: HKKKSPGEKPHRCKQCGKCFARKS [P14K]
Second: HKKKSPGEKPHRCNQCGKCFARKS [P14N]
The protein stability index of the first is lower: 3.78 for the first, 3.87 for the second.

Compared with HKKKSPGEKPHRCRQCGKCFARKS [P14R], HKKKSPGEKPHRCSQCGKCFARKS [P14S] is higher in protein stability index: 3 for the first, 3.01 for the second.

Going from HKKKSPGEKPHRCTQCGKCFARKS [P14T] to HKKKSPGEKPHRCVQCGKCFARKS [P14V], the protein stability index rises from 3.54 to 3.75.

Going from HKKKSPGEKPHRCWQCGKCFARKS [P14W] to HKKKSPGEKPHRCYQCGKCFARKS [P14Y], the protein stability index rises from 2.57 to 3.75.

Going from HKKKSPGEKPHRCPECGKCFARKS [Q15E] to HKKKSPGEKPHRCPFCGKCFARKS [Q15F], the protein stability index falls from 3.38 to 3.19.

First: HKKKSPGEKPHRCPHCGKCFARKS [Q15H]
Second: HKKKSPGEKPHRCPICGKCFARKS [Q15I]
The protein stability index of the first is lower: 3.24 for the first, 3.45 for the second.

Compared with HKKKSPGEKPHRCPKCGKCFARKS [Q15K], HKKKSPGEKPHRCPMCGKCFARKS [Q15M] is higher in protein stability index: 3.25 for the first, 3.95 for the second.

Compared with HKKKSPGEKPHRCPWCGKCFARKS [Q15W], HKKKSPGEKPHRCPYCGKCFARKS [Q15Y] is higher in protein stability index: 3.45 for the first, 3.6 for the second.

First: HKKKSPGEKPHRCPQAGKCFARKS [C16A]
Second: HKKKSPGEKPHRCPQEGKCFARKS [C16E]
The protein stability index of the first is higher: 4.73 for the first, 4.71 for the second.

First: HKKKSPGEKPHRCPQGGKCFARKS [C16G]
Second: HKKKSPGEKPHRCPQHGKCFARKS [C16H]
The protein stability index of the first is higher: 4.53 for the first, 2.71 for the second.

Compared with HKKKSPGEKPHRCPQIGKCFARKS [C16I], HKKKSPGEKPHRCPQNGKCFARKS [C16N] is lower in protein stability index: 4.24 for the first, 3.64 for the second.

Compared with HKKKSPGEKPHRCPQPGKCFARKS [C16P], HKKKSPGEKPHRCPQQGKCFARKS [C16Q] is lower in protein stability index: 4.48 for the first, 4.18 for the second.

Going from HKKKSPGEKPHRCPQRGKCFARKS [C16R] to HKKKSPGEKPHRCPQTGKCFARKS [C16T], the protein stability index rises from 3.42 to 3.71.

Going from HKKKSPGEKPHRCPQYGKCFARKS [C16Y] to HKKKSPGEKPHRCPQCCKCFARKS [G17C], the protein stability index falls from 4.59 to 3.31.

Going from HKKKSPGEKPHRCPQCDKCFARKS [G17D] to HKKKSPGEKPHRCPQCFKCFARKS [G17F], the protein stability index falls from 3.86 to 3.79.

First: HKKKSPGEKPHRCPQCHKCFARKS [G17H]
Second: HKKKSPGEKPHRCPQCNKCFARKS [G17N]
The protein stability index of the first is lower: 3.44 for the first, 3.75 for the second.

Compared with HKKKSPGEKPHRCPQCQKCFARKS [G17Q], HKKKSPGEKPHRCPQCWKCFARKS [G17W] is lower in protein stability index: 3.66 for the first, 3.41 for the second.

Compared with HKKKSPGEKPHRCPQCYKCFARKS [G17Y], HKKKSPGEKPHRCPQCGCCFARKS [K18C] is lower in protein stability index: 3.6 for the first, 3.29 for the second.

First: HKKKSPGEKPHRCPQCGDCFARKS [K18D]
Second: HKKKSPGEKPHRCPQCGFCFARKS [K18F]
The protein stability index of the first is lower: 2.17 for the first, 5.18 for the second.

Compared with HKKKSPGEKPHRCPQCGHCFARKS [K18H], HKKKSPGEKPHRCPQCGICFARKS [K18I] is lower in protein stability index: 4.25 for the first, 2.52 for the second.

Going from HKKKSPGEKPHRCPQCGLCFARKS [K18L] to HKKKSPGEKPHRCPQCGNCFARKS [K18N], the protein stability index rises from 3.13 to 3.87.

Going from HKKKSPGEKPHRCPQCGPCFARKS [K18P] to HKKKSPGEKPHRCPQCGSCFARKS [K18S], the protein stability index falls from 2.97 to 2.94.

First: HKKKSPGEKPHRCPQCGVCFARKS [K18V]
Second: HKKKSPGEKPHRCPQCGWCFARKS [K18W]
The protein stability index of the first is higher: 2.9 for the first, 2.5 for the second.

First: HKKKSPGEKPHRCPQCGKAFARKS [C19A]
Second: HKKKSPGEKPHRCPQCGKDFARKS [C19D]
The protein stability index of the first is lower: 3.36 for the first, 3.66 for the second.

Going from HKKKSPGEKPHRCPQCGKFFARKS [C19F] to HKKKSPGEKPHRCPQCGKHFARKS [C19H], the protein stability index rises from 3.48 to 4.35.

First: HKKKSPGEKPHRCPQCGKIFARKS [C19I]
Second: HKKKSPGEKPHRCPQCGKMFARKS [C19M]
The protein stability index of the first is higher: 4.05 for the first, 2.54 for the second.

Going from HKKKSPGEKPHRCPQCGKNFARKS [C19N] to HKKKSPGEKPHRCPQCGKTFARKS [C19T], the protein stability index falls from 3.79 to 3.44.

Going from HKKKSPGEKPHRCPQCGKVFARKS [C19V] to HKKKSPGEKPHRCPQCGKYFARKS [C19Y], the protein stability index rises from 3.41 to 3.99.

Going from HKKKSPGEKPHRCPQCGKCAARKS [F20A] to HKKKSPGEKPHRCPQCGKCDARKS [F20D], the protein stability index rises from 3.64 to 4.04.

Compared with HKKKSPGEKPHRCPQCGKCEARKS [F20E], HKKKSPGEKPHRCPQCGKCHARKS [F20H] is higher in protein stability index: 4.11 for the first, 4.62 for the second.

Compared with HKKKSPGEKPHRCPQCGKCIARKS [F20I], HKKKSPGEKPHRCPQCGKCLARKS [F20L] is lower in protein stability index: 4.38 for the first, 4.18 for the second.

First: HKKKSPGEKPHRCPQCGKCNARKS [F20N]
Second: HKKKSPGEKPHRCPQCGKCPARKS [F20P]
The protein stability index of the first is higher: 5.19 for the first, 1.49 for the second.

Going from HKKKSPGEKPHRCPQCGKCRARKS [F20R] to HKKKSPGEKPHRCPQCGKCSARKS [F20S], the protein stability index falls from 3.96 to 3.63.

First: HKKKSPGEKPHRCPQCGKCVARKS [F20V]
Second: HKKKSPGEKPHRCPQCGKCYARKS [F20Y]
The protein stability index of the first is higher: 3.97 for the first, 3.67 for the second.

First: HKKKSPGEKPHRCPQCGKCFCRKS [A21C]
Second: HKKKSPGEKPHRCPQCGKCFDRKS [A21D]
The protein stability index of the first is lower: 2.66 for the first, 3.51 for the second.

Compared with HKKKSPGEKPHRCPQCGKCFIRKS [A21I], HKKKSPGEKPHRCPQCGKCFKRKS [A21K] is higher in protein stability index: 2.92 for the first, 3.99 for the second.

First: HKKKSPGEKPHRCPQCGKCFLRKS [A21L]
Second: HKKKSPGEKPHRCPQCGKCFTRKS [A21T]
The protein stability index of the first is lower: 3.26 for the first, 3.69 for the second.

Compared with HKKKSPGEKPHRCPQCGKCFVRKS [A21V], HKKKSPGEKPHRCPQCGKCFYRKS [A21Y] is lower in protein stability index: 4.04 for the first, 3.27 for the second.

Going from HKKKSPGEKPHRCPQCGKCFADKS [R22D] to HKKKSPGEKPHRCPQCGKCFAGKS [R22G], the protein stability index falls from 3.82 to 3.46.

HKKKSPGEKPHRCPQCGKCFAHKS [R22H] and HKKKSPGEKPHRCPQCGKCFAKKS [R22K] are the same in protein stability index: 3.83 for the first, 3.83 for the second.

Compared with HKKKSPGEKPHRCPQCGKCFALKS [R22L], HKKKSPGEKPHRCPQCGKCFAMKS [R22M] is lower in protein stability index: 3.64 for the first, 3.33 for the second.

Going from HKKKSPGEKPHRCPQCGKCFANKS [R22N] to HKKKSPGEKPHRCPQCGKCFAQKS [R22Q], the protein stability index rises from 3.45 to 3.78.

Reference: the supplement of paper PMC10567573
